Data from the nanobody polyreactivity screen of Harvey et al. (2022).

Test: yeast display, Sf9 membrane polyspecificity reagent, FACS + sequencing; frameworks hold sequencing errors
Summary of the method: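 A nanobody's polyreactivity label depends on the gate it was sorted from. Yeast display cells were stained with 10% biotinylated, detergent-solubilized Sf9 membrane reagent for 1 hour at 4 °C, enriched on streptavidin microbeads and sorted by FACS. The low and high (top ~1%) gates were set on anti-HA fluorescence for expression and streptavidin fluorescence for reagent binding.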

Row | Sequence | polyreactivity (PSR sort gate)
1 | QVQLVESGGGLVQAGGSLRLSCAASGRTFYYNTMGWYRQAPGKERELVATISRIGGSTYYADSVKGRFTISRDNAKNTVYLQMNSLKPEDTAVYYCAAYVAAYPTGYDYWGQGTQVTVSS | high polyreactivity
2 | QVQLVESGGGLVQAGGSLRLSCAASGRTFYYYAMGWSRPAPGKERELVAGINSGGSTNYADSVKGRFTISRDNAKNTVYLQMNRLKPEDTAVYYCAVEDLGSEGWGWYKEMDYWGQGTQVTVSS | low polyreactivity
3 | QVQLVESGGGLVQAGGSLRLSCAASGRTFYYYAMGWYRLAPGKERELVAAISNRGGSTYYADSVKGRFTISRDNAKNTVYLQMNCLKPEDTAVYYCARRYSYLYTYGSWGQGPQVTVSS | high polyreactivity
4 | QVQLVESGGGLVQAGGSLRLSCAASGRTFYYYAMGWYRPAPGKERELVAAITSGGRTYYADSVKGRFTISRDNAKNRVYLQMQSLKPEDTAVYYCAARDFFRYSLGYDYWGQGTQVTVSS | high polyreactivity
5 | QVQLVESGGGLVQAGGSLRLSCAASGRTFYYYAMGWYRQAPGKEREFVAAITYRGDSTNYADSVKGRFTISRDNAKNTVYLQMNSLKPEDTAVYYCAADSPYQIYYYWGQGTQVTVSS | low polyreactivity
6 | QVQLVESGGGLVQAGGSLRLSCAASGRTFYYYAMGWYRQAPGKEREFVASISYSGARTYYADSVKGRFTISRDNAKNTVYLQVNSLKPEDTAVYYCDAGYPLGGDYWGQGTQVTVSS | high polyreactivity
7 | QVQLVESGGGLVQAGGSLRLSCAASGRTFYYYAMGWYRQAPGKERELVAAINWSSGSTYYADSVKGRFTISRDNAKNTVYLQMNSLKPEDTAVYYCNAESRWYIIPYGDFDYWGQGTQVTVSS | low polyreactivity
8 | QVQLVESGGGLVQAGGSLRLSCAASGRTFYYYAMGWYRQAPGKERELVAAISSSGGSTYYADSVKGRFTISRDNAKNTVYLQMNSLKPEDTAVYYCNARYGGYRARYTYNYWGQGTQVTVSS | high polyreactivity
9 | QVQLVESGGGLVQAGGSLRLSCAASGRTFYYYAMGWYRQAPGKERELVADITYSGGSTYYADSVKGRFTISRDNAKNTVYLQMNSLKPEDTAVYYCAARVTVSHWPYYYDSYDYWGQGTQVTVSS | low polyreactivity
10 | QVQLVESGGGLVQAGGSLRLSCAASGRTFYYYAMGWYRQAPGKERELVAGITATGSSTYYADSVKGRFTISRDNAKYTVYLQMNSLKPEDTAVYYCAADGYRIDVYHADYRYDYWGQGTQVTVSS | low polyreactivity
11 | QVQLVESGGGLVQAGGSLRLSCAASGRTFYYYAMGWYRQAPGKERELVARISYSGSNTYYADSVKGRFTISRDNAKNTVYLQMNSLKPEETAVYYCAAGYLVWRDSATLDYWGQGTQVTVSS | high polyreactivity
12 | QVQLVESGGGLVQAGGSLRLSCAASGRTFYYYAMGWYRQAPGKERELVASITYYADSVKGRFTISRDNAKNTVYLQMNSLKPEDTAVYYCAAEHKYRYDYWGQGTQVTVSS | low polyreactivity
13 | QVQLVESGGGLVQAGGSLRLSCAASGRTFYYYAMGWYRQAPGNERELVAAISRGGGTNYADSVKGRFTISRDNAKNTVYLQMNSLKPEDTAVYYCAAARIGPQRYDYWGHGTQVTVSS | high polyreactivity
14 | QVQLVESGGGLVQAGGSLRLSCAASGRTFYYYTMGWYRQAPGKERELVAAISVSGGSTYYADSVKGRFTISRDNAKNTVYLQMNSLKPEDTAVYYCAAGDGWGRRYYWGQGTQVTVSS | high polyreactivity
15 | QVQLVESGGGLVQAGGSLRLSCAASGRTFYYYTMGWYRQAPGKERELVAAITWNGGSTYYADSVKGRFTISRDNAKNTVYLQMNSLKPEDTGVYYCIARWTWRYDYWGQGTQVTLSS | high polyreactivity
16 | QVQLVESGGGLVQAGGSLRLSCAASGRTIDSYAMGWSRQAPGKEREFVAAISYSGTSTYYADSVKGRFTISRDNAKNTVYLQMNSLKPEDTAVYYCSKEYNFRLWGQGTQVTVSS | low polyreactivity
17 | QVQLVESGGGLVQAGGSLRLSCAASGRTIDYNGMGWYRQAPGKEREMVAVISSSGGSTFYADSVKGRFTISRDNAKNTVYLQMNSLKPEDTAVYYSAADFIVAYTLHGSYDYWGQGTQVTVSS | low polyreactivity
18 | QVQLVESGGGLVQAGGSLRLSCAASGRTIGFNGMGWYRQAPGKERELVAAITRSGGNTYADSVKGRFTISRDNAKNTVYLQMNSLKPEDTAVYYCATTYVGVTLTGPGDYWGQGTQVTVSS | low polyreactivity
19 | QVQLVESGGGLVQAGGSLRLSCAASGRTIGLNGMGWYRQAPGNERELVAGISWSGGSTNYADSVKGRFTISRDNAKNTVYLQMNSLKPEDTAVNYCPPDFVYYVVNDFGWSYAYEYWGQGTQVTVSS | low polyreactivity
20 | QVQLVESGGGLVQAGGSLRLSCAASGRTIGVYAMGWYRQAPGKERELVAAISWSGGTTYYADSVKGRFTISRDNAKNTVYLQMNSLKPEDTAVYYCAADSYTEVEYWGQGTQVTVSS | low polyreactivity
21 | QVQLVESGGGLVQAGGSLRLSCAASGRTIHYYAMGRSRQAPGKERELVAAITRGGNTYYADSVKGRFTISRDNAKNTVYLQMNSLKPEDTAVYYCAKDNHFEAYRYDYWGQGTQVTVSS | high polyreactivity
22 | QVQLVESGGGLVQAGGSLRLSCAASGRTIKKYTMGWSRQAPGKERELVAVITSGGSTYYADSVKGRFTISRDNAKNTVYFQMNSLKPEDTAVYYCAVIYPELRTWGYYFWGQGTQVTVSS | high polyreactivity

Row | Sequence | polyreactivity (PSR sort gate)
23 | QVQLVESGGGLVQAGGSLRLSCAASGRTIKYNAMGRYRQGPGKERELVAAITYSGGSTYYADSVKGRFTIARDNAKNTVYLQMNSLKPEDTSVYYCAAESRPYDPGIYGDYDYWGQGTQVTVSS | low polyreactivity
24 | QVQLVESGGGLVQAGGSLRLSCAASGRTIKYYAMGWYRQAPGKERELVAVISWSGGSTYYADSVKGRFTISRDNAKNTVYLQMNSLKPEDTAVYYCNAVHQYRRRYNYWGQGTQVTVSS | high polyreactivity
25 | QVQLVESGGGLVQAGGSLRLSCAASGRTINRSAMGWYRQAPGKARELVAAISTSGGTTYYADSVKGRFTISRDNAQNTAYLQMNSLKPEDPADYYCAKRGPVRTQYTYYYWGQGTQVTVSS | high polyreactivity
26 | QVQLVESGGGLVQAGGSLRLSCAASGRTINRYAMGWYRQAPGKERELVAAISTSGGTTYYADSVKGRFTISRDNAKNTVYLQMNSLKPEDSAVYYCAAVARRGSYLGQRLDYWGQGTQVTVSS | high polyreactivity
27 | QVQLVESGGGLVQAGGSLRLSCAASGRTIPFYAMGWYRQAHGKERELVDAIDSGGNTYADSVKGRFTISRDNAKNTVYLQMISLKPEDTAVYYCAVDGGEFSSYGYWGQGTQVTVSS | low polyreactivity
28 | QVQLVESGGGLVQAGGSLRLSCAASGRTIPNYAMGWTRQAPGKERELVAAISSSGDRTYYADSVKGRFTISRDNAKNTVYLQMNSLKPEDTAVYYCAADRGARGDYWGQGTQVTVSS | high polyreactivity
29 | QVQLVESGGGLVQAGGSLRLSCAASGRTIRGYAMGWYRQAPGKERELVAAITRSGGSTFADSVKGRFTISRDNAKNTVYLQMNSLKPEDTAVYYCAADRGYKYYYWGQGTQVTVSS | high polyreactivity
30 | QVQLVESGGGLVQAGGSLRLSCAASGRTIRHNAMGWYRQAPGKERELVAAISRSGGSTYYADSVKGRFTISRDNAKNTVYLQMNSLKPEDTAVYYCAAGYHIIYTPEYYYWGQGTQVTVSS | high polyreactivity
31 | QVQLVESGGGLVQAGGSLRLSCAASGRTIRWNAMGGSRPAPGKERELVAAITSRGGSTYYADSVKGRFTISRDNAKNTVYLQMNSLKPEDTAVYYCAAGGRYGDDYWGQGTQVTVSS | high polyreactivity
32 | QVQLVESGGGLVQAGGSLRLSCAASGRTIVSNAMGWYRQAPGKERELVAAITRGSRTYYADSVKGRFTISRDNAKNTVYLQMNILKPEDTAVYYCAAYRDYGSYGSWGQGTQVTVSS | high polyreactivity
33 | QVQLVESGGGLVQAGGSLRLSCAASGRTIWNYALGWYRQGPGKERELVAVIRFSDGSTYYADSVKGRFTISRDNAKNTVYLQMNSLKPEDTAVYYCAAKGPRLWGSGFDYWGQGTQVTVSS | low polyreactivity
34 | QVQLVESGGGLVQAGGSLRLSCAASGRTIYRNAMGWYRQAPGKERELVAAITSGGSTNYADSVKGRFTLSRDNAKNTGYLQMNSLKPEDTAVYYCAATRGRYLWYYRYDYWGQGTQVTVSS | high polyreactivity
35 | QVQLVESGGGLVQAGGSLRLSCAASGRTIYYYAMGWYRQAPGKERELVAAISRSGSSTFYADSVKGRFTISRDNAKNTVYLQMNSLKPEDTAVYYCAADDYSRRVYFFFGAYDYWGQGTQVTVSS | high polyreactivity
36 | QVQLVESGGGLVQAGGSLRLSCAASGRTLAHYTMGWYRQAPGKERELVAAITFSGGRTYYADSVKGRFTISRDNAKNTVYLQMNSQKPEDTAVYYCAAPGRWYYRGDDYWGQGTQVTVSS | low polyreactivity
37 | QVQLVESGGGLVQAGGSLRLSCAASGRTLARNAMGWDRQAPGKEWELVASINGRTTRTYYADSVKGRFTISRDNANNTVYLQRNSLKPEDTAVYYCAADPPGYVYGKRYYWGQGTQVTVSS | high polyreactivity
38 | QVQLVESGGGLVQAGGSLRLSCAASGRTLARNAMGWYRQAPGKERELVASINGRTTRTYYADSVKGRFTISRDNAKNTVYFQMNSLKPEDPAVYYCAADPPGYVYGKRYYWGQGTQVTVSS | high polyreactivity
39 | QVQLVESGGGLVQAGGSLRLSCAASGRTLARTALGWYRQAPGKERELVAAISRRAVRTYYADSVKGRFTISRDNAKNTVYLQMNILKPEDTAVYYCYAASSLPGYDYWGQGTQVTVSS | high polyreactivity
40 | QVQLVESGGGLVQAGGSLRLSCAASGRTLFPNVMGWYRQAPGKERELVAAIRGTGGSTYADSVKGRVTISRDNAKNTVYLQMNSLKPEDTAVYYCAAGYPVTRRTIRFDYWGQGTQVTVSS | high polyreactivity
41 | QVQLVESGGGLVQAGGSLRLSCAASGRTLFTIAMGWYRQAPGKERELLAAISIGGTTYYADSVKGRFTISRDYAKNTVYLQMNSLKPEDTAVYYCNKVRRFHSEYGYWGQGTQVTVSS | high polyreactivity
42 | QVQLVESGGGLVQAGGSLRLSCAASGRTLFWNAMGWYRQAPGKEREFVAAIRWRGGSTYYADSVKGRFTISRDNAKNTVYLQMNSLKPEDTAVYYCGAAVRPYKRQDDYWGQGTQVSVSS | high polyreactivity
43 | QVQLVESGGGLVQAGGSLRLSCAASGRTLGTNAMGWYRQAPGKERELVATISRGGITNYADSVKGRFTISRDNPKNTVYLQMNSLKPEDTAVYYCNVRYQHVYRGYGPNKYNYWGQGTQVTVSS | high polyreactivity
